Assay results taken from PMC10470591.

Key:
[1] = molecular target: Flag-tagged SisArnB (vWA domain protein) expressed in S. islandicus (Saccharolobus islandicus REY15A); test: co-IP; in vivo pull-down: Flag-ArnB or Flag-ArnE precipitated with anti-Flag magnetic beads from sonicated S. islandicus cell extract in buffer A (50 mM Tris-HCl pH 7.5, 150 mM NaCl, 5% glycerol); SisArnA detected by Western blot with anti-SisArnA; cells untreated or treated with 3 µM NQO for 6 h
[2] = molecular target: Flag-tagged SisArnE (vWA domain protein SisvWA2) expressed in S. islandicus (Saccharolobus islandicus REY15A); test: as above

Substance: SisArnA, FHA domain-containing protein from Saccharolobus islandicus REY15A (endogenous) (natural protein)
- amount of SisArnA pulled down after NQO treatment, percent of the untreated sample [1]: 40%
- fold of the SisArnA-ArnE interaction, normal growth conditions [1]: 9 fold
- amount of SisArnA pulled down after NQO treatment, fold of the untreated sample [2]: 3 fold
